T1: human TIGIT on Jurkat cells (TIGIT/NFAT reporter Jurkat cells, BPS Bioscience #60538); Promega TIGIT Effector … (human, UniProt Q495A1 22-244)
T1 sequence (looked up): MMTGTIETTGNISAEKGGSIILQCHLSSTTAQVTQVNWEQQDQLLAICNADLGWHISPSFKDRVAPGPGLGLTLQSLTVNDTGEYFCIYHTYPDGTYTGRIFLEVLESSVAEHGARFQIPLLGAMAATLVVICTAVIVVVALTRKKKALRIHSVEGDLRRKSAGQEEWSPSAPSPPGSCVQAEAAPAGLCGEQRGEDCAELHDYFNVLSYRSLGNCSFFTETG

T2: his-tagged human TIGIT (Acro Biosystems #TIT-H52H3) (human, UniProt Q495A1 22-141)
T2 construct: Bought protein; also called His-tagged-TIGIT (human); not shown: his tag
T2 sequence (looked up): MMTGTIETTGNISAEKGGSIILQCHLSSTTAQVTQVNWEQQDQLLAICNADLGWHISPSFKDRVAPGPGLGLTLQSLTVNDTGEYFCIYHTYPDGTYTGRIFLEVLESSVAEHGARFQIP

T3: his-tagged murine TIGIT (Acro Biosystems #TIT-M52E6) (murine, UniProt P86176 29-148, limits assumed)
T3 construct: Bought protein; also called mouse his-tagged TIGIT; not shown: his tag
T3 sequence (looked up): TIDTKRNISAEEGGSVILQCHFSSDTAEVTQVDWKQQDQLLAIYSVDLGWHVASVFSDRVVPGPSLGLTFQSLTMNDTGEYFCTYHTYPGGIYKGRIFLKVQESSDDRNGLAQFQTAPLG


Key:
[1] = molecular target: T1, human TIGIT on Jurkat cells (TIGIT/NFAT …); test: cell-based or functional assay
[2] = molecular target: T2, his-tagged human TIGIT (Acro Biosystems …); test: ELISA, coated His-TIGIT, 1 ug/ml
[3] = molecular target: T3, his-tagged murine TIGIT (Acro …); test: ELISA, coated His-TIGIT, 1 ug/ml
[4] = molecular target: T4, His-tagged cynomolgus monkey TIGIT (Acro Biosystems #TIT-05223) (cynomolgus monkey, UniProt A0A7N9I9V4 89-209); test: ELISA, coated His-TIGIT, 1 ug/ml
T4 construct: Bought protein; also called cyno TIGIT; cynomolgus TIGIT; not shown: His tag

[5] = molecular target: T1, human TIGIT on Jurkat cells (TIGIT/NFAT …); test: flow cytometry, TIGIT/NFAT Jurkat cells, 10 ug/ml
[6] = molecular target: T2, his-tagged human TIGIT (Acro Biosystems …); test: SPR (Carterra LSA), scFv-Fc captured, His-TIGIT analyte
Experimental: (§1) Binding affinities of anti-TIGIT antibodies to human, cyno, and murine TIGIT were measured by Surface Plasmon Resonance (SPR) on a Carterra LSA instrument. Goat anti-human Fc antibody was amine coupled to a HC30M chip. ScFv-Fc supernatants were diluted 30-fold with HBSTE and were captured by the anti-human Fc coupled HC30M chip. A 1:2 dilution series of his-tagged human TIGIT, starting at 400 nM, was injected onto the chip for binding. A dilution series was also carried out for cyno TIGIT and murine TIGIT. Data were analyzed using the Carterra™ Kinetics software.

[7] = molecular target: T4, His-tagged cynomolgus monkey TIGIT …; test: as above
Experimental: as §1

[8] = molecular target: T4, His-tagged cynomolgus monkey TIGIT …; test: SPR (Carterra LSA), scFv-Fc captured, His-TIGIT analyte; repeat
Experimental: as §1

[9] = molecular target: T3, his-tagged murine TIGIT (Acro …); test: SPR (Carterra LSA), scFv-Fc captured, His-TIGIT analyte
Experimental: as §1

[10] = molecular target: T3, his-tagged murine TIGIT (Acro …); test: SPR (Carterra LSA), scFv-Fc captured, His-TIGIT analyte; repeat
Experimental: as §1

T4 sequence (A0A7N9I9V4 entry or part of it): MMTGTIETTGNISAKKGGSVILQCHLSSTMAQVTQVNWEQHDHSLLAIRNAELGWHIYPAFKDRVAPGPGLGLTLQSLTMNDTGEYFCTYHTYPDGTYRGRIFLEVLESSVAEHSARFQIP

Binder | max. signal (% of 22G2) [1] | Elisa OD450 [2] [OD450] | Elisa OD450 [3] [OD450] | Elisa OD450 [4] [OD450] | MFI [5] [MFI] | Kd [6] [nM] | Kd [7] [nM] | Kd [8] [nM] | Kd [9] [nM] | Kd [10] [nM]
43586p1.1.H8 (scFv, V domains shown) VH: EVQLLESGGGLVQPGGSLRLSCAASGFTFIDFWMSWVRQAPGKGLEWVSAISWIGDTYYYADSVKGRFTVSRDNSKNTVYLQMNSLRAEDTAVYYCAKHWTVYQYGMDVWGQGTTVTVSS VL: QSVLTQPPSASGTPGQRVIISCSGSTSDIETKYVSWYQQLPGTAPKLLIYGNHQRPSGVPDRFSGSKSGTSASLAISGLQSEDEADYYCTAWDNTLKSWVFGGGTKLTVL | 124 % of 22G2 | 1.93 | 0.048 | 1.25 | 9170 | 0.292 | 31.6 | 16 |  | 
43586p1.2.F6 (scFv, V domains shown, Tested as scFv-Fc supernatant; also called 43586p1.2.F06) VH: EVQLLESGEGLVQPGGSLRLSCAASGFTFTSYLMSWVRQAPGKGLEWVSTITWDGDRTYYADSVKGRFTISRDNSKNTLYLQMNSLRVGDTAVYYCAKHWTVFQYGMDVWGQGTTVTVSS VL: QSVLTQPASASGTPGQRVTISCSGTISNIETKYVSWYQQLPGTAPKLLIYGNHQRPSGVPDRFSGSKSGTSASLAISGLQSEDEADYYCASWENDLKSWVFGGGTKLTVL |  |  |  |  |  | 0.223 | 38.1 | 4.6 |  | 
43645p1.D8 (scFv, V domains shown) VH: EVQLLESGGDLVQSGGSLRLSCAASGFSFWGYAMTWVRQAPGKGLEWVSTIAGNSYAYYADSVKGRFTISRDNSKNMVYLQMNGLRAEDTAVYYCAKDRSFYNYYDIDVWGQGTTVTVSS VL: not shown | 108 % of 22G2 | 1.77 | 0.053 | 1.36 | 10300 | 0.416 | 24.5 | 1.9 |  | 
43586p2.A03 (scFv, V domains shown) VH: EVQLLESGGGLVQPGGSLRLSCAASGFTFTSYAMSWVRQAPGKGLEWVAGISYIGRNEYYADSVKGRLTISRDNSKNTLYLQMNNLRAEDTAIYYCAKHLTGGTTDYYYYGMDVWGQGTTVTVSS VL: QSVLTQPPSASGTPGQRVTISCSGSTSNIGTSRYVHWYQQLPGTAPKLLIYFDSQRPSGVPDRFSASKSGTSASLAISGLQSEDEADYYCATWDDSLSAWVFGGGTKLTVL | 109 % of 22G2 | 1.96 | 0.046 | 1.41 | 9070 | 0.386 | 63 | 33 |  | 
43586p2.G01 (scFv, V domains shown) VH: EVQLLESGGGLVQPGGSLRLSCAASGFTVSSNWMSWVRQAPGKGLEWVSTTSSSSWNNYTYYADSVKGRFTISRDNSKNTLYLQMNSLRAEDTAVYYCAKGSYGMDVWGQGTTVTVSS VL: QSVLTQPPSASGTPGQRVTISCSGSNSNIGAKYLYWYQQLPGTAPKLLIYLNDRRPSGVPDRFSGSKSGTSASLAISGLQSEDEADYYCAFWDDHLKGWVFGGGTKLTVL | 110 % of 22G2 | 2.03 | 1.95 | 1.15 | 9720 | 2.69 | 339 |  | 1.65 | 
43586p2.H02 (scFv, V domains shown) VH: EVQLLESGGGLVQPGGSLRLSCATSGFTVSDHYVSWVRQAPGKGLEWVSTSSSTNWNDGRTYYADSVKGRFTISRDNSENTLYLQMNSLRAEDTAVYYCAKGSYGMDVWGQGTTVTVSS VL: QSVLTQPPSASGTPGQRVTISCSASNSYIGTKYFYWYQQLPGTAPKLLIYLDSQRPSGVPDRFSGSKSGTSVSLAISGLQSEDEADYYCAFWDDHLHGWVFGGGTKLTVL | 80 % of 22G2 | 2 | 1.93 | 1.09 | 9130 | 2.53 | 334 |  | 3.94 | 
43645p1.B2 (scFv, V domains shown) VH: EVQLLESGGGLVQPGGSLRLSCATSGFTFSSYWMSWVRQAPGKGLEWVSGIHISDSTYYADSVKGRFTISRDNSKNTLYLQMNSLRAEDTAVYYCAKGHTVLQYGMDVWGQGTTVTVSS VL: QSGLTQPPSASGTPGQRVTISCSGDISNTRNNYVSWYQQLPGTAPKLLIYGNHQRPSGVPDRFSGSKSATSASLAISGLQSEDEADYHCGTWDNTLNAWVFGGGTKLTVL | 111 % of 22G2 | 2.42 | 1.85 | 1.61 | 8950 | 0.0464 |  | 0.93 |  | 42
43645p1.G5 (scFv, V domains shown) VH: EVQLLESGGGLVQPGGSLRLSCAASGFTFSSYYMSWVRQAPGKGLEWVSAISIFSGDSTYYADSVKGRFTISRDNSKNTLYLQMNSLRAEDTAVYYCAKSHTVLQYGMDVWGQGTTVTVSS VL: QSVLTQPPSASGTPGQRVTISCSGVTSNIRNYYVSWYQQLPGTAPKLLIYGNDQRPSGVPDRFSGSKSGTSASLAISGLQSEDEADYYCGTWDNTLNAWVFGGGTKLTVL | 99 % of 22G2 | 1.94 | 1.01 | 1.73 | 12400 | 0.0507 |  | 0.368 |  | 
43645p1.E3 (scFv, V domains shown) VH: EVQLLESGGGLVQPGGSLRLSCAASGFTFSSYAMSWVRQAPGKGLEWVSAIYFDGSIYDADSVKGRFTISRDNSKNTLYLQMNSLRDEDTAVYYCAKSHTVLQYGMDVWGQGTTVTVSS VL: QSVLTQPPSASGTPGQRVTISCSGVTSNIRNSYVSWYQQLPGTAPKLLIYGNDQRPSGVPDRFSGSKSGTSASLAISGLQSEDEADYYCGTWDNTLNAWVFGGGTKLTVL | 103 % of 22G2 | 1.99 | 0.947 | 1.53 | 9950 | 0.0267 | 6.96 | 5.5 |  | 
43586p2.F02 (scFv, V domains shown) VH: EVQLLESGGGLVQPGGSLRLSCAASGFTFDDYVMSWVRQAPGKGLEWVSLINWNGDKTYYADSVKGRFTISRDNSKNTLYLQMNSLRAEDTAVYYCARHWIVLQYGLDVWGQGTTVTVSS VL: QSVLTQPLSASGTPGQRVTISCSGVSSNIEIKYVSWYQQLPGTAPKLLIYNSHQRPSGVPDRFSGSKSGTSASLAISGLQSEDEADYYCTSWDDRLKSWVFGGGTKLTVL | 92 % of 22G2 | 1.85 | 1.9 | 1.77 | 8960 | 1.81 | 14.4 |  | 96 | 
43586p2.F11 (scFv, V domains shown) VH: EVQLLELGGSLVQPGGSLRLSCAASGFTFDDYVMSWVRQAPGKGLEWVSLINWNGDKTYYADSVKGRFTISRDNSKNTLYLQMNSLRAEDTAVYYCARHWIVFQYGLDVWGQGTTVTVSS VL: QSVLTQPLSASGTPGQKVTISCSGVSSNIEIKYVSWYQQLPGTAPKLLIYNSHQRPSGVPDRFSGSKSGTSASLAISGLQSEDEADYYCTSWDDRLKSWVFGGGTKLTVL | 104 % of 22G2 | 1.98 | 1.93 | 1.92 | 9200 | 0.307 | 2.09 |  | 6.23 | 
